From patent US9969812B2, “Anti human Notch4 antibody” (Eisai R&D Management Co., Ltd., priority 2015, dated 2018)

Target: T1, Human Notch4-NRR Fusion Protein (Homo sapiens, UniProt Q99466)
T1 construct: Human Notch4-NRR domain Fc fusion proteins were expressed with a CHO cell line; Fc; made in house; host or cells: CHO cell line (antigen captured from culture supernatant)
T1 sequence (Q99466 1046-1445 limits assumed): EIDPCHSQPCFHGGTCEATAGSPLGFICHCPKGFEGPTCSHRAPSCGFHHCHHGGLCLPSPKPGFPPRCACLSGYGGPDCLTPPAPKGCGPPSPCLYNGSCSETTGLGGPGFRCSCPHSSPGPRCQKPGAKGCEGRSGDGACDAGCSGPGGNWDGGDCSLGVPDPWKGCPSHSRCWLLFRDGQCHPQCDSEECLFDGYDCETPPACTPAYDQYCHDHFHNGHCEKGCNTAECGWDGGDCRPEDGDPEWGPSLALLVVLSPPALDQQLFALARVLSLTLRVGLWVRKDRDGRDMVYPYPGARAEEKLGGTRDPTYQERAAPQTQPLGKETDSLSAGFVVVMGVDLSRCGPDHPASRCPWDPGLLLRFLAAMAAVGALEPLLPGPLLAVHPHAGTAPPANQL
Experiment: Kinetic analysis, captured Human Notch4-NRR Fc fusion protein, humanized antibody injected
Type: binding
Settings: Table 30, Human Notch4-NRR Fc fusion
Protocol: Kinetic analysis of further anti-Notch4 inhibitory humanized antibodies was carried out as follows. Human Notch4-NRR domain Fc fusion proteins were expressed with a CHO cell line. The antigen in the culture supernatant was captured by the anti-human Notch4 antibody fixed on a CM5 sensor chip that recognizes different epitopes of human Notch4. The humanized anti-human Notch4 antibody was then injected onto the sensor chip at various concentrations. The interaction and disassociation constants thereof were calculated according to manufacturer's instructions.
In the table below, e.g. the description “HK2L3 (Lys-)” means that the heavy chain variable region of the humanized anti-human Notch4 antibody employed in the experiment is the heavy chain variable region of the humanized anti-human Notch4 antibody heavy chain HK2 in Example 1, light chain variable region is the light chain variable region of the humanized anti-human Notch4 antibody light chain L3 in Example 1, and lysine (Lys) located at the C-terminal of the heavy chain of a common human antibody is deleted in this antibody. Those without the description “(Lys-)” mean that Lys located at the C-terminal of the heavy chain of the human antibody is not deleted.

B1: Antibody D: humanized anti-human Notch4 antibody, heavy chain variable region HK3, light chain variable region L5, C-terminal Lys deleted (antibody)
heavy: EVQLVESGGGLVQPGGSLRLSCAASGFTFSSYGMSWVRQAPGKGLELVATINSNGGRTYYPDSVKGRFTISRDNSKNTLYLQMGSLKAEDMAVYYCARDQGFAYWGQGTLVTVSSASTKGPSVFPLAPCSRSTSESTAALGCLVKDYFPEPVTVSWNSGALTSGVHTFPAVLQSSGLYSLSSVVTVPSSNFGTQTYTCNVDHKPSNTKVDKTVERKCCVECPPCPAPPAAAPSVFLFPPKPKDTLMISRTPEVTCVVVDVSHEDPEVQFNWYVDGVEVHNAKTKPREEQFNSTFRVVSVLTVVHQDWLNGKEYKCKVSNKGLPAPIEKTISKTKGQPREPQVYTLPPSREEMTKNQVSLTCLVKGFYPSDIAVEWESNGQPENNYKTTPPMLDSDGSFFLYSKLTVDKSRWQQGNVFSCSVMHEALHNHYTQKSLSLSPG
light: DIQMTQSPSSLSASVGDRVTITCKASQDVGTAVAWYQQKPGKSPKLLIYWASTRHTGVPSRFSGSGSGTDFTLTISSLQPEDVATYFCQQYSSYPWTFGQGTKVEIKRTVAAPSVFIFPPSDEQLKSGTASVVCLLNNFYPREAKVQWKVDNALQSGNSQESVTEQDSKDSTYSLSSTLTLSKADYEKHKVYACEVTHQGLSSPVTKSFNRGEC
  Rmax1 (RU): 37 RU
  ka: 1.82e+06 M⁻¹ s⁻¹
  kd: 0.000863 s⁻¹
